Drawing on the Human Domainome abundance scans (Beltran et al. 2025), this text covers abundance fitness for 162 variants.

The labels stand for the following.
B1: Tripartite motif-containing protein 6, residues 93 to 134; numbered along this chain, Q9C030 (parent)
chain: KAVLCADHGEKLQLFCQEDGKVICWLCERSQEHRGHHTFLVE
B2: Heterogeneous nuclear ribonucleoprotein U-like protein 2, residues 1 to 40; numbered along this chain, Q1KMD3 (parent)
chain: MEVKRLKVTELRSELQRRGLDSRGLKVDLAQRLQEALDAE

± gives the uncertainty stated by the source.

The variants in one data set derive from B1. As to the kind of experiment: abundance fitness (aPCA) (normalised: wild type 0, dead -1); higher = more abundant; growth selection in yeast, the domain comes from the species named. The conditions noted are these: Homo sapiens.
For the variant KAVLCADHGEKLQLFCQEDGKVICWLCERSQEHRGHHTFLVT, the abundance fitness is 0.216 ± 0.23.
Turning to KAVLCADHGEKLQLFCQEDGKVICWLCERSQEHRGHHTFLVD, the abundance fitness is 0.094 ± 0.16.
Regarding KAVLCADHGEKLQLFCQEDGKVICWLCERSQEHRGHHTFLVY, the abundance fitness was -0.421 ± 0.21.

The variants in another data set derive from B2. The data set is described as above. Particulars: Homo sapiens.
With M1G, the abundance fitness is -0.383 ± 0.066.
The same measure, in the same setting: as for M1Y, the figure is -0.749 ± 0.41; as for M1K, -0.136 ± 0.087.
On to M1W, for which the abundance fitness is -0.354 ± 0.091.
Same read-out and setting: in the case of M1Q it was -0.514 ± 0.11; in that of M1R, -0.236 ± 0.061; in that of M1V, -0.277 ± 0.053.
On to M1C, for which the abundance fitness was -0.414 ± 0.19.
For the variant M1D, the abundance fitness is -1.65 ± 0.32.
Regarding M1H, the abundance fitness was -1.03 ± 0.24.
For the variant M1F, the abundance fitness is -0.179 ± 0.19.
Same read-out and setting: as for M1A, the figure is -0.461 ± 0.067.
Consider M1T, for which the abundance fitness is -0.564 ± 0.13.
The same measure, in the same setting: in the case of M1E it was -0.08 ± 0.078; in that of M1S, -0.589 ± 0.27.
Same read-out and setting: in the case of M1L it was -0.339 ± 0.097; in that of E10K, -1.08 ± 0.13; in that of E10P, -0.758 ± 0.088.
For the variant E10N, the abundance fitness is -0.726 ± 0.25.
For the variant E10L, the abundance fitness is -0.641 ± 0.057.
Take E10A: the abundance fitness was -0.336 ± 0.056.
For E10V, the abundance fitness was -0.376 ± 0.059.
Turning to E10R, the abundance fitness is -0.619 ± 0.051.
With E10S, the abundance fitness is -0.512 ± 0.066.
Take E10T: the abundance fitness was -0.305 ± 0.079.
For the variant E10Q, the abundance fitness is -0.023 ± 0.098.
Regarding E10M, the abundance fitness was -0.329 ± 0.072.
Still for that read-out and setting: as for E10Y, the figure is -0.869 ± 0.21.
Same read-out and setting: in the case of E10W it was -0.599 ± 0.066; in that of V3E, -0.279 ± 0.07.
Same read-out and setting: as for V3P, the figure is -0.077 ± 0.063.
As to V3A, the abundance fitness was -0.107 ± 0.055.
In the case of V3R, the abundance fitness was -0.567 ± 0.05.
The same measure, in the same setting: in the case of V3Y it was -0.226 ± 0.088.
Turning to V3L, the abundance fitness was -0.122 ± 0.063.
V3K: the abundance fitness was -0.501 ± 0.1.
As for V3D, the abundance fitness was -0.202 ± 0.085.
For V3S, the abundance fitness is -0.245 ± 0.062.
On to V3T, for which the abundance fitness was -0.114 ± 0.073.
On to V3W, for which the abundance fitness was -0.432 ± 0.053.
Still for that read-out and setting: as for V3Q, the figure is -0.328 ± 0.082; as for V3G, -0.325 ± 0.048; as for V3I, 0.048 ± 0.13.
Regarding V3H, the abundance fitness was -0.603 ± 0.19.
For the variant V3F, the abundance fitness was -0.374 ± 0.17.
Turning to V3C, the abundance fitness is -0.357 ± 0.1.
For the variant K7Q, the abundance fitness was found to be 0.067 ± 0.08.
Still for that read-out and setting: in the case of K7D it was 0.135 ± 0.072; in that of K7N, 0.305 ± 0.11; in that of K7F, -0.484 ± 0.12.
On to K7A, for which the abundance fitness was -0.069 ± 0.05.
Turning to K7S, the abundance fitness amounted to 0.141 ± 0.056.
On to K7V, for which the abundance fitness was -0.274 ± 0.054.
Regarding K7G, the abundance fitness was 0.015 ± 0.047.
Consider K7L, for which the abundance fitness was -0.143 ± 0.052.
Turning to K7I, the abundance fitness is -0.388 ± 0.15.
Regarding K7P, the abundance fitness is -0.065 ± 0.06.
On to K7C, for which the abundance fitness was -0.158 ± 0.068.
Regarding K7R, the abundance fitness is -0.153 ± 0.051.
The same measure, in the same setting: as for T9A, the figure is -0.04 ± 0.053.
Take T9L: the abundance fitness is -0.27 ± 0.067.
For the variant T9E, the abundance fitness worked out at 0.113 ± 0.053.
On the same count and under the same terms, in the case of T9H it was 0.163 ± 0.13; in that of T9P, -0.132 ± 0.066.
Regarding T9Q, the abundance fitness was determined as 0.022 ± 0.068.
As for T9C, the abundance fitness was -0.054 ± 0.099.
As to T9W, the abundance fitness is -0.103 ± 0.06.
For the variant T9S, the abundance fitness is -0.083 ± 0.054.
The same measure, in the same setting: as for T9R, the figure is -0.012 ± 0.049; as for T9Y, -0.135 ± 0.14; as for T9I, 0.102 ± 0.15.
T9M: the abundance fitness is 0.074 ± 0.12.
On the same count and under the same terms, as for T9K, the figure is 0.099 ± 0.12; as for T9G, -0.017 ± 0.05; as for T9V, -0.153 ± 0.056.
L11A: the abundance fitness is -0.458 ± 0.052.
For the variant R5I, the abundance fitness is -0.237 ± 0.096.
As to R5P, the abundance fitness is -0.435 ± 0.074.
For R5N, the abundance fitness is -0.03 ± 0.19.
With R5C, the abundance fitness is -0.129 ± 0.064.
As to R5S, the abundance fitness was found to be 0.046 ± 0.055.
Consider R5V, for which the abundance fitness is -0.35 ± 0.059.
Still for that read-out and setting: as for R5F, the figure is -0.302 ± 0.15; as for R5K, 0.194 ± 0.08; as for R5Y, -0.247 ± 0.16.
For the variant R5G, the abundance fitness is -0.021 ± 0.048.
For the variant R5Q, the abundance fitness came to 0.006 ± 0.055.
Regarding R5D, the abundance fitness turned out to be 0.181 ± 0.19.
With R5W, the abundance fitness is -0.256 ± 0.056.
R5A: the abundance fitness was 0.005 ± 0.048.
Still for that read-out and setting: as for R5E, the figure is 0.077 ± 0.061; as for R5L, -0.031 ± 0.059.
Take R5M: the abundance fitness is -0.038 ± 0.096.
On to V8Q, for which the abundance fitness was -0.169 ± 0.062.
As to V8T, the abundance fitness came to 0.033 ± 0.074.
On the same count and under the same terms, as for V8S, the figure is -0.167 ± 0.057.
On the same count and under the same terms, as for V8D, the figure is 0.024 ± 0.075; as for V8W, -0.435 ± 0.056; as for V8L, -0.025 ± 0.054.
Still for that read-out and setting: in the case of V8Y it was 0.072 ± 0.12.
Consider V8K, for which the abundance fitness was -0.163 ± 0.11.
The same measure, in the same setting: in the case of V8I it was -0.265 ± 0.2; in that of V8G, -0.354 ± 0.05; in that of V8N, -0.27 ± 0.16.
Take V8C: the abundance fitness was -0.146 ± 0.065.
For V8A, the abundance fitness was -0.077 ± 0.062.
For the variant V8R, the abundance fitness is -0.334 ± 0.049.
On the same count and under the same terms, as for V8F, the figure is -0.289 ± 0.12; as for V8M, -0.04 ± 0.065.
Consider V8P, for which the abundance fitness is -0.298 ± 0.069.
As for L6M, the abundance fitness is 0.348 ± 0.11.
In the case of L6S, the abundance fitness is -0.476 ± 0.059.
In the case of L6H, the abundance fitness is -0.496 ± 0.12.
As to L6Q, the abundance fitness was -0.198 ± 0.075.
With L6T, the abundance fitness worked out at 0.024 ± 0.18.
Take L6Y: the abundance fitness is -0.46 ± 0.15.
As to L6D, the abundance fitness is -0.845 ± 0.23.
For the variant L6N, the abundance fitness is -0.236 ± 0.14.
Turning to L6V, the abundance fitness was -0.425 ± 0.06.
L6W: the abundance fitness is -0.281 ± 0.056.
For the variant L6F, the abundance fitness is -0.063 ± 0.15.
Consider L6R, for which the abundance fitness was -0.572 ± 0.052.
For the variant L6C, the abundance fitness was -1.02 ± 0.13.
Turning to L6K, the abundance fitness is -0.144 ± 0.089.
As for L6G, the abundance fitness was -0.485 ± 0.049.
In the case of L6P, the abundance fitness is -0.48 ± 0.074.
In the case of L6E, the abundance fitness was -0.26 ± 0.066.
Regarding L6I, the abundance fitness was -0.7 ± 0.31.
As to K4C, the abundance fitness was -0.181 ± 0.067.
Take K4F: the abundance fitness was -0.182 ± 0.17.
For the variant K4Y, the abundance fitness is -0.112 ± 0.095.
K4H: the abundance fitness was 0.335 ± 0.46.
As for K4L, the abundance fitness was -0.123 ± 0.059.
In the case of K4I, the abundance fitness was -0.317 ± 0.098.
Still for that read-out and setting: as for K4P, the figure is -0.37 ± 0.074.
Turning to K4D, the abundance fitness was -0.082 ± 0.073.
For the variant K4M, the abundance fitness amounted to 0.091 ± 0.11.
Turning to K4R, the abundance fitness is -0.152 ± 0.051.
The same measure, in the same setting: in the case of K4A it was -0.06 ± 0.049; in that of K4E, 0.09 ± 0.062.
Still for that read-out and setting: as for K4G, the figure is -0.126 ± 0.047.
In the case of K4W, the abundance fitness was -0.097 ± 0.058.
Consider K4T, for which the abundance fitness was found to be 0.019 ± 0.088.
Consider K4Q, for which the abundance fitness was -0.028 ± 0.073.
Consider E2R, for which the abundance fitness is -0.365 ± 0.07.
E2T: the abundance fitness was -0.243 ± 0.13.
In the case of E2W, the abundance fitness was -0.263 ± 0.067.
Take E2V: the abundance fitness was -0.336 ± 0.094.
Turning to E2Y, the abundance fitness is -0.161 ± 0.085.
Still for that read-out and setting: as for E2Q, the figure is -0.193 ± 0.091; as for E2L, -0.294 ± 0.068; as for E2P, -0.844 ± 0.1.
The same measure, in the same setting: as for E2K, the figure is -0.432 ± 0.079.
On the same count and under the same terms, as for E2S, the figure is -0.243 ± 0.082; as for E2G, -0.371 ± 0.06.
In the case of E2I, the abundance fitness is -0.271 ± 0.12.
On to E2C, for which the abundance fitness is -0.388 ± 0.088.
With E2A, the abundance fitness is -0.33 ± 0.061.
Regarding E2H, the abundance fitness was -0.201 ± 0.15.
